The test system of the data set is ATP. Briefly: switch fluorescence ratio, 500 uM ATP over buffer (Cy3 cluster intensity, sum of 5 cycles each) (fold (ratio)); higher = stronger signal-on switching upon ATP binding; sequences stand for … in TCGTCGGCAGCGTCAGATGTGTATAAGAGACAGTTTTTTTTTTTTTTTTTTTTTTTTT…TC. The settings on record: aptamer strand: ATP DNA aptamer (quencher-CACCTGGGGGAGTATTGCGGAGGAAGG + anchor), 100 nM annealed; ATP concentration: 500 uM. In a few lines: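 For every switch-domain sequence, the fluorescence ratio is the mean of per-cluster values, each being summed target-cycle Cy3 intensity over summed buffer-cycle Cy3 intensity. Clusters outside 100-1000 RFU were excluded. On a modified Illumina MiSeq flow-cell, the Cy3-labelled switching-strand clusters were annealed to 100 nM quencher-labelled ATP aptamer, imaged in selection buffer and then after 15 min with 500 uM ATP at 22 °C. Five such cycles were run, with NaOH stripping and re-annealing between them.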

± gives the standard deviation of the averaged measurements.
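Further: ATP exposure 15 min at 22 °C before imaging.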

Consider GTTGATAAGT, for which the switch fluorescence ratio was 1.01 ± 0.0084.

On to GTTGATATAG, for which the switch fluorescence ratio came to 1 ± 0.021.

GTTGATGCCG: the switch fluorescence ratio was determined as 1.001 ± 0.0012.

Take GTTGATGGTG: the switch fluorescence ratio came out at 1 ± 0.039.

For GTTGCAGGGT, the switch fluorescence ratio was determined as 1.004 ± 0.0065.

In the case of GTTGCCGAGT, the switch fluorescence ratio was 1.024 ± 0.0048.

In the case of GTTGCGATGA, the switch fluorescence ratio worked out at 1.02 ± 0.013.

On to GTTGCGGGGG, for which the switch fluorescence ratio came to 0.9937 ± 0.0015.

In the case of GTTGCGGGGT, the switch fluorescence ratio is 1.02 ± 0.029.

In the case of GTTGCGTCGA, the switch fluorescence ratio is 0.997 ± 0.016.

On to GTTGCGTCTA, for which the switch fluorescence ratio turned out to be 1.04 ± 0.033.

Consider GTTGCTACCT, for which the switch fluorescence ratio stood at 1.05 ± 0.038.

With GTTGCTGATT, the switch fluorescence ratio turned out to be 1.02 ± 0.04.

As to GTTGCTGGGG, the switch fluorescence ratio turned out to be 0.998 ± 0.011.

Take GTTGCTTTGG: the switch fluorescence ratio was 1.04 ± 0.017.

Take GTTGGAAGAT: the switch fluorescence ratio came out at 1.03 ± 0.015.

Take GTTGGAGCCT: the switch fluorescence ratio came to 0.995 ± 0.065.

With GTTGGCAACA, the switch fluorescence ratio amounted to 1.04 ± 0.056.

For GTTGGGAAAA, the switch fluorescence ratio was 1.01 ± 0.034.

As for GTTGGGGAAT, the switch fluorescence ratio was 1.04 ± 0.093.

With GTTGGGGAGC, the switch fluorescence ratio worked out at 1.005 ± 0.0066.

Take GTTGGGGAGT: the switch fluorescence ratio was 0.9776 ± 0.0062.

As for GTTGGGGGAG, the switch fluorescence ratio was determined as 0.978 ± 0.02.

As for GTTGGGGGCC, the switch fluorescence ratio was found to be 0.997 ± 0.013.

Regarding GTTGGGGGTA, the switch fluorescence ratio came out at 0.999 ± 0.028.

As for GTTGGGGGTG, the switch fluorescence ratio was determined as 0.992 ± 0.037.

Regarding GTTGGGGTGC, the switch fluorescence ratio was found to be 1.01 ± 0.028.

On to GTTGGGTATA, for which the switch fluorescence ratio was found to be 0.996 ± 0.014.

Take GTTGGGTCAT: the switch fluorescence ratio was determined as 1.01 ± 0.045.

For the sequence GTTGGGTGAG, the switch fluorescence ratio was 0.987 ± 0.02.

Take GTTGGGTGGG: the switch fluorescence ratio was determined as 0.984 ± 0.013.

Turning to GTTGGGTTGG, the switch fluorescence ratio was found to be 1 ± 0.033.

Regarding GTTGGTCTGG, the switch fluorescence ratio was found to be 0.943 ± 0.048.

Consider GTTGGTGACG, for which the switch fluorescence ratio is 1.048 ± 0.0055.

In the case of GTTGGTGTTG, the switch fluorescence ratio was found to be 0.998 ± 0.032.

GTTGGTTTTT: the switch fluorescence ratio was found to be 0.975 ± 0.027.

Turning to GTTGTAAAAA, the switch fluorescence ratio was 0.968 ± 0.046.

As for GTTGTAGGGT, the switch fluorescence ratio is 0.976 ± 0.022.

For GTTGTCCTTG, the switch fluorescence ratio was determined as 1.01 ± 0.015.

For GTTGTCGGGG, the switch fluorescence ratio amounted to 1.02 ± 0.018.

On to GTTGTGAGCG, for which the switch fluorescence ratio came out at 1.01 ± 0.048.

With GTTGTGCGGG, the switch fluorescence ratio was 1.02 ± 0.0089.

In the case of GTTGTGGGGA, the switch fluorescence ratio worked out at 1.02 ± 0.023.

Turning to GTTGTGTCTG, the switch fluorescence ratio came to 0.979 ± 0.013.

With GTTGTGTTTG, the switch fluorescence ratio turned out to be 0.998 ± 0.022.

For the sequence GTTGTTACAA, the switch fluorescence ratio is 1.004 ± 0.0092.

As for GTTGTTAGCG, the switch fluorescence ratio was determined as 1 ± 0.037.

With GTTGTTATTT, the switch fluorescence ratio was found to be 1 ± 0.011.

Regarding GTTTAAAAGC, the switch fluorescence ratio was found to be 0.9842 ± 0.0061.

GTTTAAACGC: the switch fluorescence ratio was determined as 1.01 ± 0.026.

As for GTTTAAAGGG, the switch fluorescence ratio came out at 0.998 ± 0.013.

With GTTTAAATAG, the switch fluorescence ratio is 1.04 ± 0.011.

With GTTTAAGAAA, the switch fluorescence ratio is 0.998 ± 0.027.

With GTTTAAGTTC, the switch fluorescence ratio amounted to 0.988 ± 0.017.

For GTTTAATTGC, the switch fluorescence ratio was 0.995 ± 0.049.

On to GTTTAATTTT, for which the switch fluorescence ratio is 0.987 ± 0.033.

For GTTTACGTTC, the switch fluorescence ratio was determined as 1.02 ± 0.049.

As for GTTTAGATG, the switch fluorescence ratio amounted to 0.989 ± 0.022.

With GTTTATAGGG, the switch fluorescence ratio came out at 0.985 ± 0.025.

With GTTTATGCAC, the switch fluorescence ratio turned out to be 1.06 ± 0.084.

With GTTTATGGGT, the switch fluorescence ratio stood at 1.023 ± 0.009.

In the case of GTTTATGGTT, the switch fluorescence ratio worked out at 1 ± 0.022.

As to GTTTATTCGA, the switch fluorescence ratio is 0.989 ± 0.014.

In the case of GTTTATTGTT, the switch fluorescence ratio was found to be 1 ± 0.047.

In the case of GTTTATTTCT, the switch fluorescence ratio worked out at 1.02 ± 0.049.

In the case of GTTTCAAGAT, the switch fluorescence ratio was 0.994 ± 0.044.

Regarding GTTTCCAGTT, the switch fluorescence ratio is 1.03 ± 0.023.

With GTTTCCTATT, the switch fluorescence ratio was determined as 0.959 ± 0.013.

With GTTTCGTCCA, the switch fluorescence ratio was 2.1 ± 1.6.

As to GTTTCTGTTA, the switch fluorescence ratio stood at 0.9574 ± 0.0033.

GTTTGCATTT: the switch fluorescence ratio stood at 0.981 ± 0.015.

GTTTGCGACT: the switch fluorescence ratio was 0.998 ± 0.067.

Regarding GTTTGCGCAG, the switch fluorescence ratio was 1.02 ± 0.018.

Regarding GTTTGCTCCC, the switch fluorescence ratio is 1.15 ± 0.086.

For GTTTGCTTAG, the switch fluorescence ratio is 0.986 ± 0.024.

In the case of GTTTGGGGTA, the switch fluorescence ratio came out at 0.986 ± 0.013.

Turning to GTTTGGGGTC, the switch fluorescence ratio stood at 0.984 ± 0.018.

On to GTTTGGGTAG, for which the switch fluorescence ratio was 1.02 ± 0.034.

In the case of GTTTGGGTGT, the switch fluorescence ratio was found to be 1 ± 0.016.

For the sequence GTTTGGTTGG, the switch fluorescence ratio came to 1 ± 0.02.

Take GTTTGTAAGC: the switch fluorescence ratio was determined as 1.03 ± 0.01.

As to GTTTGTAGTG, the switch fluorescence ratio turned out to be 1.01 ± 0.026.

Consider GTTTGTCTGC, for which the switch fluorescence ratio was 0.963 ± 0.025.

Regarding GTTTGTCTTT, the switch fluorescence ratio was found to be 1.02 ± 0.012.

GTTTGTGCGG: the switch fluorescence ratio came out at 0.9811 ± 0.0084.

For GTTTGTGGTA, the switch fluorescence ratio amounted to 0.978 ± 0.011.

For GTTTGTGGTT, the switch fluorescence ratio turned out to be 0.988 ± 0.019.

As for GTTTGTGTTC, the switch fluorescence ratio amounted to 0.988 ± 0.015.

Take GTTTTAACTT: the switch fluorescence ratio is 0.999 ± 0.054.

Consider GTTTTAAGGC, for which the switch fluorescence ratio was 1.01 ± 0.058.

For GTTTTACCGC, the switch fluorescence ratio was found to be 1.01 ± 0.018.

In the case of GTTTTACGTC, the switch fluorescence ratio was determined as 0.981 ± 0.047.

In the case of GTTTTACTGA, the switch fluorescence ratio is 1.03 ± 0.021.

As to GTTTTATCCG, the switch fluorescence ratio amounted to 1.025 ± 0.0045.

As to GTTTTCAGTA, the switch fluorescence ratio came out at 0.982 ± 0.0022.

Turning to GTTTTCGCCG, the switch fluorescence ratio amounted to 1.03 ± 0.11.

Turning to GTTTTCGGGG, the switch fluorescence ratio stood at 1.04 ± 0.029.

For GTTTTCTATG, the switch fluorescence ratio came to 1 ± 0.021.

As for GTTTTCTTCA, the switch fluorescence ratio came to 1.04 ± 0.018.

On to GTTTTGAGAG, for which the switch fluorescence ratio was 0.9595 ± 0.0086.

In the case of GTTTTGCGTT, the switch fluorescence ratio turned out to be 0.988 ± 0.028.

GTTTTGGAGG: the switch fluorescence ratio worked out at 0.9691 ± 0.0043.

GTTTTGGGAG: the switch fluorescence ratio was found to be 1.02 ± 0.033.

On to GTTTTGGGCC, for which the switch fluorescence ratio is 1.02 ± 0.05.

Consider GTTTTGGGGG, for which the switch fluorescence ratio is 1.02 ± 0.025.

With GTTTTGTAAA, the switch fluorescence ratio was found to be 0.975 ± 0.026.

For GTTTTGTATG, the switch fluorescence ratio was found to be 1.004 ± 0.0044.

Turning to GTTTTTAACG, the switch fluorescence ratio was 1.02 ± 0.05.

As to GTTTTTACTG, the switch fluorescence ratio was 1.05 ± 0.081.

Turning to GTTTTTAGCA, the switch fluorescence ratio is 0.9719 ± 0.005.

GTTTTTATAG: the switch fluorescence ratio is 0.992 ± 0.014.

As to GTTTTTCAAG, the switch fluorescence ratio worked out at 0.975 ± 0.01.

As for GTTTTTCGGG, the switch fluorescence ratio is 0.981 ± 0.034.

For the sequence GTTTTTCGT, the switch fluorescence ratio is 1 ± 0.062.

GTTTTTCTGT: the switch fluorescence ratio is 1.01 ± 0.014.

For the sequence GTTTTTGACA, the switch fluorescence ratio is 0.989 ± 0.015.

Take GTTTTTGCTT: the switch fluorescence ratio was determined as 1.01 ± 0.032.

For the sequence GTTTTTGGAA, the switch fluorescence ratio came to 1.05 ± 0.013.

Take GTTTTTGGAC: the switch fluorescence ratio came to 0.982 ± 0.029.

For GTTTTTGGAT, the switch fluorescence ratio turned out to be 0.991 ± 0.0049.

The values above are taken from the supplement of paper PMC10126150.
